Patent JP2016528193A

Assays:
ヒトPCSK9(野生型) (human) = assay: Biacore at pH 6.0 (HBS-P with 0.01 % BSA), fitted from competition curves, n=1
ヒトD374Y PCSK9 (human) [1] = assay: competition ELISA: block of biotinylated D374Y PCSK9 (20 ng/mL) binding to captured LDLR
ヒトD374Y PCSK9 (human) [2] = assay: cell-based or functional assay

Row | Substance | Kd (ヒトPCSK9(野生型) (human)) | IC50 (ヒトD374Y PCSK9 (human) [1]) | 細胞LDL取り込みアッセイ(HepG2、LDL-BODIPY)のIC50 (ヒトD374Y PCSK9 (human) [2])
1 | 21B12 IgG4 (antibody) |  | 0.169 nM | 18 nM
2 | 31H4 IgG2 (antibody) |  | 0.199 nM | 16.7 nM

Further lines, results first:

Row | Kd (ヒトPCSK9(野生型) (human)) | IC50 (ヒトD374Y PCSK9 (human) [1]) | 細胞LDL取り込みアッセイ(HepG2、LDL-BODIPY)のIC50 (ヒトD374Y PCSK9 (human) [2]) | Substance
3 | 7.3 pM |  |  | 21B12 (antibody)
4 |  | 0.17 nM | 13.3 nM | 21B12 IgG2 (antibody)
5 |  | 0.156 nM | 13.3 nM | 31H4 IgG4 (antibody)
